Test results as given in publication doi:10.1101/2025.02.04.636450.

What was measured:
[1] = molecular target: circularly permuted AaLS with a His-tag in the linker connecting native termini (cpAaLS(His)) (Aquifex aeolicus); assay: absorbance ratio at 280/475 nm
[2] = molecular target: wildtype lumazine synthase from Aquifex aeolicus (AaLS-wt) (Aquifex aeolicus) (UniProt O66529); assay: absorbance ratio at 280/475 nm
[3] = molecular target: circularly permuted AaLS with a Strep II tag in place of the His-tag region (cpAaLS(Strep)) (Aquifex aeolicus)

stoichiometry N [3] | Substance | GFP molecules per pentamer (GFP molecules per pentamer) [1] | GFP molecules per pentamer (GFP molecules per pentamer) [2]
– | cpAaLS-GFP-SsrA (GFP-SsrA fused to the C-terminus of cpAaLS) | 0.14 | 0.11
5 | circularly permuted AaLS with a Strep II tag in place of the His-tag region (cpAaLS(Strep)) | – | –
